US20120141537A1

Experiments:
Assay in all cases: cell-based or functional assay
[1] = target: H-2K^b wild type complexed with Q7 peptide SIINFEQL (SEQ ID NO:2) (mouse) (UniProt P01901)
[2] = target: H-2K^b wild type complexed with SIINFEKL (SEQ ID NO:1) (mouse; chicken) (UniProt P01901)
[3] = target: K^bm3 complexed with Q7 peptide (SEQ ID NO:2) (mouse) (UniProt P01901)

- Day 14 Diabetes in B6-RIP-OVA mice given naive OT-1 spleen cells and peptide-pulsed RMAS cells [1]: 0 of 4 mice
- Day 21 Diabetes after day 15 challenge with TMEV-SIINFEKL [1]: 0 of 4 mice
- Day 14 Diabetes in B6-RIP-OVA mice given naive OT-1 spleen cells and peptide-pulsed RMAS cells [2]: 0 of 2 mice
- Day 21 Diabetes after day 15 challenge with TMEV-SIINFEKL [2]: 2 of 2 mice
- Day 14 Diabetes in B6-RIP-OVA mice given naive OT-1 spleen cells and peptide-pulsed RMAS cells [3]: 0 of 4 mice
- Day 21 Diabetes after day 15 challenge with TMEV-SIINFEKL [3]: 3 of 4 mice
- diabetes (>300 mg/dL blood glucose) after TMEV-L/OVA challenge on day 15 (FIG. 4) [3]: 65 % of mice
Substance: OT-1 T cell receptor (TCR)
